Experimental data: IntAct's records for PubMed 18342605

Experiments:
nab3_yeast NAB3 = nab3_yeast NAB3 (UniProt P38996)
pp12_yeast GLC7 = pp12_yeast GLC7 (UniProt P32598)
UniProt P32598, sequence (P32598 whole entry): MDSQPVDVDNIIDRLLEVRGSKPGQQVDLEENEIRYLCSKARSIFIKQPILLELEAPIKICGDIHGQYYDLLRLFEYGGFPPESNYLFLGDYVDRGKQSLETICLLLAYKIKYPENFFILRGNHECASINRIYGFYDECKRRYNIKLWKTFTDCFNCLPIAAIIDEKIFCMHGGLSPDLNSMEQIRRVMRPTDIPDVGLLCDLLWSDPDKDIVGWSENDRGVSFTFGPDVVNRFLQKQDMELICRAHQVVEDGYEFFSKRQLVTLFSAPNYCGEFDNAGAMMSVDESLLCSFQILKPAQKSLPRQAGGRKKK

UniProt P38996, sequence (P38996 whole entry): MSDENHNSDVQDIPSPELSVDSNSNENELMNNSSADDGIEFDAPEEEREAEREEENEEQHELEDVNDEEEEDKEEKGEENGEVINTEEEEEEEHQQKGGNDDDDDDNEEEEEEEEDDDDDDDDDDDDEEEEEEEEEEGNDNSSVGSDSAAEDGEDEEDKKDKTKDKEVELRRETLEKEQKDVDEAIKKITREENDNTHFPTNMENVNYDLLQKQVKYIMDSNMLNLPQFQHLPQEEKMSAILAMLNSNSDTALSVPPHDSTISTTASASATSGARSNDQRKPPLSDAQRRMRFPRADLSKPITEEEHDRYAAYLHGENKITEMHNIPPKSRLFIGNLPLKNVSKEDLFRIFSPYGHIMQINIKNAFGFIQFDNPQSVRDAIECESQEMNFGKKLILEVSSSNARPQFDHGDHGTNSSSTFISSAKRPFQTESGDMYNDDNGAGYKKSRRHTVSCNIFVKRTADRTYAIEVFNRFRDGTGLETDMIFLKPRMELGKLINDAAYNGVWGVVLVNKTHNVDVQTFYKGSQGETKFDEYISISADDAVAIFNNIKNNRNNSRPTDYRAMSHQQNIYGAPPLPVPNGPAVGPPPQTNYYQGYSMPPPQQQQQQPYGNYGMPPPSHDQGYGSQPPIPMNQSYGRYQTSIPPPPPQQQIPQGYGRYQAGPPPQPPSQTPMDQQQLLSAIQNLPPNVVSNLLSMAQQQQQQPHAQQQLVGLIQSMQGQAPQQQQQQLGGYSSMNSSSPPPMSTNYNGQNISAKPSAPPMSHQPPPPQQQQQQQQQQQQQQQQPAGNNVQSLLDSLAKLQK

Substance	effect of a mutation on the interaction (nab3_yeast NAB3)	effect of a mutation on the interaction (pp12_yeast GLC7)
Helicase SEN1 (Saccharomyces cerevisiae), Q00416 F2003A	with no effect	disrupting interaction strength
Helicase SEN1 (Saccharomyces cerevisiae), Q00416 K1999A	with no effect	with no effect
